Data from patent publication US10865391B2, “Glutamate dehydrogenase mutants and their application in preparation of L-phosphinothricin” (ZHEJIANG UNIVERSITY, priority 2018, dated 2020).

How the values were obtained:
Type in all cases: biochemical
[1] = Preparation of L-phosphinothricin by coupling glutamate dehydrogenase with glucose dehydrogenase; settings: 500 mM PPO, NADP+, 35° C., pH 7.5, 6 h
Procedure: (§1) The reaction process is monitored by measuring the concentration of substrate in the reaction solution applying high-performance liquid chromatography (HPLC). HPLC analysis method is stated as follows: column model: Pntulips® QS-C18, 5 μm, 4.6 mm×250 mm. Mobile phase: 50 mM (NH4)2HPO4, added 1% of 10% tetrabutyl ammonium hydroxide, adjusted to pH 3.6 with 50% phosphoric acid(mass fraction), added 8% acetonitrile. Detective wave length is 205 nm; flow rate is 1.0 mL/min. Column temperature is 40° C.
(§2) The enantiomeric excess and concentration of product are determined through pre-column derivatization high-performance liquid chromatography; the specific analysis method is stated as follows:
(§3) (1) HPLC condition: column model: Pntulips® QS-C18, 5 μm, 4.6 mm×250 mm. Mobile phase: 50 mM Sodium acetate: Acetonitrile=8: 0.5 (v/v). Detective wave length: 338 nm. Flow rate: 0.85 mL/min. Column temperature: 30° C.
(§4) (2) Derivatization reagent: Weigh 0.03 g phthalaldehyde and 0.1 g N-acetyl-L-cysteine, and use 400 uL ethanol for solubilization; after that, add 4 mL 0.2 mol/L borate buffer (pH 9.8) and shake for dissolution prior to storage in the fridge under the temperature of 4° C. (no more than 4 days).
(§5) (3) Derivatization reaction and analysis: Add 150 μL derivatization reagent into 100 μL sample, mix and incubate at 25° C. for 5 min, and then inject 20 μL for analysis.
Culture recombinant E. coli expressing glutamate dehydrogenase (PpGluDH) and glucose dehydrogenase (BsGDH-2M, SEQ ID NO. 21) with method in Step 3 of Embodiment 1; proceed with centrifugal collection of cells and ultrasonic cell disruption to prepare crude enzyme solution.
(§6) The final volume of the reaction is 30 mL; each sample contains 500 mM substrate PPO, 600 mM glucose, 250 mM (NH4)2SO4 and 0.5 mM NADP^+. Concentration of glutamate dehydrogenase cells (dry weight) is 1.0 g/L; concentration of glucose dehydrogenase cells (dry weight) is 1.25 g/L. Use water bath to control the reaction temperature at 35° C.; titrate ammonia to control pH at 7.5 during the reaction process. Use non-chiral HPLC to determine residual concentration of PPO after reaction for 6 h; meanwhile, use pre-column derivatization HPLC to determine the concentration and ee value of formed L-phosphinothricin.
as §6, with “0.5” for “1.0”
as §6, with “NAD^+.” for “NADP^+.”, “1.25” for “1.0”
The final volume of the reaction is 30 mL; each sample contains 500 mM substrate PPO, 600 mM glucose, 250 mM (NH4)2SO4 and 0.5 mM NAD^+. Concentration of glutamate dehydrogenase cells (dry weight) is 1.25 g/L; concentration of glucose dehydrogenase cells (dry weight) is 1.25 g/L. Use water bath to control the reaction temperature at 35° C.; titrate ammonia to control pH at 7.5 during the reaction process. […]

[2] = Specific activity of pure enzyme toward PPO
Procedure: The recombinant E. coli carrying glutamate dehydrogenase gene used in the present invention is constructed and kept by our laboratory. The vector used is pET-28a(+), and the host used is E. coli BL21(DE3). NI-NTA resin (HisPur™ Ni-NTA Resin) used for protein purification is purchased from Thermo Scientific™; protein purification is carried out in reference to specifications.
(§7) The standard enzyme activity measurement system: Appropriate amount of enzyme, 100 mM substrate, 10 mM coenzyme (NADH or NADPH), 500 mM NH4^+ ((NH4)2SO4); total system volume is up to 400 μL; reaction medium is pH 7.5 phosphate buffer. 35° C. reaction for 10 min; after that, add 40 uL 5 M NaOH to terminate reaction.
(§8) Definition of enzyme activity unit: The quantity of enzyme as required by generation of 1 μmol L-phosphinothricin per minute under standard reaction conditions.
Meanwhile, specific activity of pure enzyme obtained through purification has also been measured. As measured, specific activity of pure protein of wild type PpGluDH is 0.31 U/mg; specific activity of PpGluDH-A167G is 38.13 U/mg, which is 123 times higher than that of wild type; specific activity of PpGluDH-V378A is 35.96 U/mg, which is 116 times higher than that of wild type.

[3] = Standard enzyme activity measurement toward PPO, crude enzyme (per volume fermentation broth)
Procedure: The preserved recombinant E. coli is streaked onto the plate for activation. Single colonies are picked and inoculated into 5 mL LB liquid medium containing 50 μg/mL kanamycin and cultured at 37° C. for 12 h. The culture is transferred to 50 mL fresh LB liquid medium containing 50 μg/mL kanamycin at a 2% inoculum, and then incubated at 37° C. until the OD600 reaches 0.6; after that, add IPTG to a final concentration of 0.5 mM, and then proceed with induction culture under the temperature of 18° C. for 16 h.
After the cultivation, the culture is centrifuged at 10000 rpm for 10 min; discard supernatant, and collect cells. The harvested cells are washed for 2 times using pH 7.5 50 mM phosphate buffer. After that, the cells are re-suspend into the pH 7.5 phosphate buffer and disrupted ultrasonically (400W for 30 times, Ultrasonic time is 3 s, and the interval is 7 s). The cell disrupted solution is centrifuged at 12000 g for 5 min at 4° C. to remove the precipitate, and the supernatant obtained is the crude enzyme containing recombinant glutamate dehydrogenase
as §7, §8
Proceed with induction culture of constructed mutants, and prepare crude enzyme solution.

[4] = Preparation of L-phosphinothricin by coupling glutamate dehydrogenase with alcohol dehydrogenase; settings: 500 mM PPO, 750 mM isopropanol, TBADH, NADP+, GluDH cells 0.5 g/L, 35° C., pH 7.5, 12 h
Procedure: as §1, §2, §3, §4, §5
Culture recombinant E. coli expressing glutamate dehydrogenase (LsGluDHp-A175G, SEQ ID NO. 7) and alcohol dehydrogenase (TBADH, WP_041589967.1) with method in Step 3 of Embodiment 1; proceed with centrifugal collection of cells and ultrasonic cell disruption to prepare crude enzyme solution.
The final volume of the reaction is 30 mL; each sample contains 500 mM substrate PPO, 750 mM isopropanol, 250 mM (NH4)2SO4 and 0.5 mM NADP^+. Concentration of glutamate dehydrogenase cells (dry weight) is 0.5 g/L; concentration of alcohol dehydrogenase cells (dry weight) is 2.5 g/L. Use water bath to control the reaction temperature at 35° C.; titrate ammonia to control pH at 7.5 during the reaction process. […]

| Molecule | concentration of formed L-phosphinothricin ([1]; GluDH cells 1.0 g/L) | residual PPO ([1]; GluDH cells 1.0 g/L) | substrate conversion ([1]; GluDH cells 1.0 g/L) | Specific activity of pure enzyme ([2]; purified protein) | Specific activity, times higher than that of wild type ([2]; versus wild type PpGluDH) | Enzyme activity (per volume fermentation broth) ([3]; toward PPO, 100 mM substrate, 10 mM coenzyme, 500 mM NH4+, pH 7.5, 35° C., 10 min, crude enzyme) | Enzyme activity (per volume fermentation broth), times higher than that of wild type ([3]; toward PPO, versus wild type PpGluDH) | concentration of formed L-phosphinothricin ([1]; GluDH cells 0.5 g/L) | residual PPO ([1]; GluDH cells 0.5 g/L) | substrate conversion ([1]; GluDH cells 0.5 g/L) | concentration of formed L-phosphinothricin [4] | residual PPO [4] | substrate conversion [4] | Fold change [3] | Enzyme activity of mutants (U/mL) ([3]; toward PPO, crude enzyme, standard system, N.D. = no detectable activity) |
| --- | --- | --- | --- | --- | --- | --- | --- | --- | --- | --- | --- | --- | --- | --- | --- |
| PpGluDH-V378A: PpGluDH mutant, valine 378 to alanine, SEQ ID NO. 2 (protein, Pseudomonas putida glutamate dehydrogenase mutant) MSTMIESVDNFLARLKQRDPGQPEFHQAVEEVLRTLWPFLEANPHYLQSGILERMVEPERAVLFRVSWVDDQGKVQVNRGYRIQMSSAIGPYKGGLRFHPSVNLSVLKFLAFEQVFKNSLTSLPMGGGKGGSDFDPKGKSDAEVMRFCQAFMSELYRHIGADCDVPAGDIGVGAREIGFMFGQYKRLANQFTSVLTGKGMTYGGSLIRPEATGYGCVYFAEEMLKRQDKRIDGRRVAVSGSGNVAQYAARKVMDLGGKVISLSDSEGTLYAEAGLTDAQWDALMELKNVKRGRISELAGQFGLEFRKGQTPWSLPCDIALPCATQNELGAEDARTLLRNGCICVAEGANMPTTLEAVDIFLDAGILYAPGKASNAGGAAVSGLEMSQNAMRLLWTAGEVDSKLHNIMQSIHHACVHYGEEADGRINYVKGANIAGFVKVADAMLAQGVV | 81.9 g/L | 1.2 mM | 99.8% | 35.96 U/mg | 116 times | 13.3 U/mL | 121 times | – | – | – | – | – | – | – | – |
| LsGluDHp-A175G: LsGluDHp mutant A175G, SEQ ID NO. 7 (protein, Lysinibacillus sphaericus glutamate dehydrogenase mutant) MTITTVSNEQLAKEYVDGVFEQLKQQNCHQAEFLQAAEEIFISLVPVFVQHPEYIKANILSRIVEPDRIISFRVAWQDDHNQVQVNRGYRVQYSNVMGPYKGGLRFHPSVNESIIKFLGFEQIFKNALTGQPIGGGKGGSNFDPKGKSDSEIMRFCQAFMTELYRHIGPDVDVPGGDIGVGAREVGYLWGQYKRLTKASESGVLTGKTPGYGGSLARKEATGYGTVYFVNEMLKDVNDSFEGKTVVVSGSGNVSTYAIEKAQQYGAKVVACSDSSGYIYDPEGLDLDVIKEIKEVKGDRISTYVSYRPNATFTNGCTGIWTIPCDIALPCATQNEINGESARTLISNGVKAIGEGANMPSDLEAINEFLNAGVLFGPAKAANAGGVAVSALEMAQDSSRVFWSFEEVDAKLHQIMKDIYSDSKAAAEKYGFPGNLVMGANIAGFIKVADGMLTEGIY | – | – | – | – | – | – | – | 82.4 g/L | 0 mM | 100% | 81.3 g/L | 1.3 mM | 99.7% | 1641 | 34.47 U/mL |
